# According to publication PMC11124013, “Substrate Affinity Is Not Crucial for Therapeutic L-Asparaginases: Antileukemic Activity of Novel Bacterial Enzymes” (Molecules, 2024):
# Legend:
# [1] = substrate: NC(=O)C[C@H](N)C(=O)O; experiment: purified protein; conditions: PBS pH 7.4, 37 °C
# [2] = substrate: NC(=O)C[C@H](N)C(=O)O; experiment: ITC single-injection method; assay type: biochemical, Escherichia coli; conditions: PBS pH 7.4, 37 °C
# From the text: ITC single-injection method on EcAII
# [3] = substrate: NC(=O)C[C@H](N)C(=O)O; experiment: Nessler ammonia assay; assay type: biochemical, Escherichia coli; conditions: PBS pH 7.4, 37 °C
# From the text: Nessler ammonia assay on EcAIII
# [4] = substrate: COC(=O)[C@H](Cc1ccccc1)NC(=O)C[C@H](N)C(=O)O; experiment: purified protein; assay type: biochemical, Escherichia coli; conditions: PBS pH 7.4, 37 °C, 600 µM α-ketoglutarate, 190 µM NADH
# [5] = substrate: NC(=O)C[C@H](N)C(=O)O; experiment: Nessler ammonia assay; assay type: biochemical, Rhizobium etli; conditions: PBS pH 7.4, 37 °C
# From the text: Nessler ammonia assay on ReAV
protein,measurement,setting,value
ReAIV (Rhizobium etli CFN 42) (protein) MTNPVTVEVTRGLLVESRHRGAVAVVDGDGKLFFSLGDIDTAVFPRSACKAMQALPLVESGAADAYGFGDKELALACASHNGEEEHVALAASMLSRAGRNVEALECGAHWSMNQKVLIQQARSLDAPTALHNNCSGKHAGFICACCHRDIDPKGYVGYEHPLQVEIRAVMERLTGAVLGAESCGTDGCSIPTYAMPLRNLAHGFARMATGTGLEPLRAKASRRLIEACMAEPFYVAGSGRACTKLMQIAPGRIFVKTGAEGVFCAAIPEKGIGISLKSEDGATRAAEAMVAATLARFFETEETVHAALMAFAAMPMRNWNGIHVGDIRATSVFSA,Km,[1],7.16 ± 2.03 mM
same,kcat,[1],9.98 s⁻¹
same,kcat/Km,[1],1390 M⁻¹ s⁻¹
"EcAII (Escherichia coli K-12) (protein, synthetic gene, N-terminal 6xHis-tag (pET28a or pMSCG92), expressed in E. coli BL21 (DE3) deltaansA/deltaansB; tetramer) LPNITILATGGTIAGGGDSATKSNYTVGKVGVENLVNAVPQLKDIANVKGEQVVNIGSQDMNDNVWLTLAKKINTDCDKTDGFVITHGTDTMEETAYFLDLTVKCDKPVVMVGAMRPSTSMSADGPFNLYNAVVTAADKASANRGVLVVMNDTVLDGRDVTKTNTTDVATFKSVNYGPLGYIHNGKIDYQRTPARKHTSDTPFDVSKLNELPKVGIVYNYANASDLPAKALVDAGYDGIVSAGVGNGNLYKSVFDTLATAAKTGTAVVRSSRVPTGATTQDAEVDDAKYGFVASGTLNPQKARVLLQLALTQTKDPQQIQQIFNQY",Km,[2],0.012 ± 0.002 mM
same,kcat,[2],39 ± 1 s⁻¹
same,kcat/Km,[2],3.3e+06 ± 561000 M⁻¹ s⁻¹
"EcAIII (Escherichia coli K-12) (protein, synthetic gene, N-terminal 6xHis-tag (pET28a or pMSCG92), expressed in E. coli BL21 Gold (DE3); precursor self-matures into alpha and beta subunits, (alpha-beta)2 heterotetramer) chain 1: GKAVIAIHGGAGAISRAQMSLQQELRYIEALSAIVETGQKMLEAGESALDVVTEAVRLLEECPLFNAGIGAVFTRDETHELDACVMDGNTLKAGAVAGVSHLRNPVLAARLVMEQSPHVMMIGEGAENFAFARGMERVSPEIFSTSLRYEQLLAARKEGATVLDHSGAPLDEKQKMG chain 2: TVGAVALDLDGNLAAATSTGGMTNKLPGRVGDSPLVGAGCYANNASVAVSCTGTGEVFIRALAAYDIAALMDYGGLSLAEACERVVMEKLPALGGSGGLIAIDHEGNVALPFNTEGMYRAWGYAGDTPTTGIYREKGDTVATQ",Km,[3],17.66 ± 1.87 mM
same,kcat,[3],5.77 ± 0.19 s⁻¹
same,kcat/Km,[3],330 ± 100 M⁻¹ s⁻¹
same,Km,[4],3.57 ± 0.58 mM
same,kcat,[4],0.112 ± 0.007 s⁻¹
same,kcat/Km,[4],31 ± 7 M⁻¹ s⁻¹
"ReAV (Rhizobium etli CFN 42) (protein, gene in pET151D-TOPO, 6xHis-tagged, expressed in E. coli BL21 Gold (DE3); homodimer, Zn in active site) MTPSEDFVVTDRGGIVENSHRVHAAVVDAKGRLLYALGNPTRMTLARSAAKPAQALAILETEGVAGYGFDDADIALMCASHSSEDRHIARTRAMLSKIKAEEADLRCGGHPSLSEMVNRSWIKQDFIPTAVCSNCSGKHVGMLAGARAIGAGTDGYHLPDHPMQGRVKRTVAELCDLDAGDVEWGTDGCNLPTPAFPLDRLGRIYAKLASAADGSDAGEGQSTRCAALAHIFRAMARHPEMVAGEGRYCTMLMRAFDGALVGKLGADASYAIGVRASDATRQLGTDGALGISVKIEDGNLEMLYAVVTELLERLGIGSPDVRSQLASFHHPQRVNTMGVTTGGVSFPFKLRGSKSNVDDPRLAAVAR",Km,[5],24.81 ± 3.22 mM
same,kcat,[5],28.5 ± 1.6 s⁻¹
same,kcat/Km,[5],1150 ± 210 M⁻¹ s⁻¹
